Assay results published in US20230031280A1, “GLP-2 FUSION POLYPEPTIDES AND USES FOR TREATING AND PREVENTING GASTROINTESTINAL CONDITIONS” (SHIRE-NPS PHARMACEUTICALS, INC., priority 2017, published 2023).

What was measured:
[1] = molecular target: T1, hFcRn (extracellular domain of the FcRN) (Homo sapiens, UniProt P55899); experiment: FcRn binding by surface plasmon resonance (Biacore)
T1 construct: made in house
Source text: Binding to the Fc neonatal receptor (FcRN) allows for recycling of the molecules and leads to an extended in vivo serum half-life of the Fc fusion proteins. Recycling occurs as the molecules are passively taken into the cells and the pH of the endosomes is lower. That leads to binding of the Fc portion of the molecule to the FcRN. When the FcRN recycles back to the surface of the cell, the pH is then neutral and the protein is released back into the serum.
Binding to the extracellular domain of the FcRN was measured by surface plasmon resonance (SPR) using a Biacore system. Direct immobilization with FcRn was achieved via amine coupling of a CM5 chip with FcRn under the following conditions: • i) hFcRn (expressed and purified in house) is diluted in Acetate buffer pH 5.0 to 5 μg/mL. • ii) Immobilize 5 μg/mL of FcRn with target of 500 RU on CM5 chip in PBS pH 7.0 • iii) Final response 454 RU • iv) Running buffer: PBS-P+, pHed to 5.5
The kinetic binding study was done using the following protocol. Samples were diluted in PBS-P+ to 50, 25, 12.5, 6.25, 3.125, 1.56, 0.78, 0.39, 0 nM. The parameters were set as follows: • i) Association and Dissociation 300 s at Flow rate 30 μL/min • ii) Regeneration with 25 mM Tris, 150 mM NaCl pH 8.0 40 s at 60 μL/min
A measurement of the binding of the GLP-2 peptibodies to the Fc neonatal receptor (FcRN) was undertaken at pH 5.5 and pH 7.4.

[2] = Cynomolgus monkey pharmacokinetic study; format: in vivo, cynomolgus monkeys; conditions: 0.75 mg/kg
Procedure: Pharmacokinetics studies of teduglutide, GLP-2 Peptibody B and GLP-2 Peptibody K were formed in cynomolgus monkeys with citrulline assayed as a biomarker of GLP-2 concentration. In the study, 12.5 nmol/kg teduglutide was administered subcutaneously to a group of 6 male cynomolgus monkeys at day 1. Then for one set of 2 monkeys, 25 nmol/kg GLP-2 Peptibody B was administered intravenously at day 7, day 21, day 28, day 35, and day 42. For another set of 3 monkeys, 25 nmol/kg GLP-2 Peptibody B was administered subcutaneously at day 7, day 21, day 28, day 35, and day 42. For another set of monkeys, 5 nmol/kg GLP-2 Peptibody K was administered intravenously (2 monkeys) and subcutaneously (3 monkeys) at day 7, day 21, day 28, day 35, and day 42. For another set of monkeys, 25 nmol/kg GLP-2 Peptibody K was administered subcutaneously (3 monkeys) and intravenously (2 monkeys) at day 7, day 21, day 28, day 35, and day 42.

[3] = Rat pharmacokinetics, intravenous dosing; format: in vivo, Sprague-Dawley rats; conditions: single dose 1 mg/ml
Procedure: In the rat, four pharmacokinetic parameters were measured for Gattex® (a GLP-2 peptide having the A2G mutation): CL, Vc, Vt and Q. The same pharmacokinetic parameters were also measured for GLP-2 peptibodies A, B, E, J, K, L, M, O and P. The data is shown in Table 4. Male Sprague-Dawley rats (3 animals per group) were injected intravenously either via a jugular vein or tail vein catheter. A singles dose of test article was injected at a dose level of 1 mg/ml. The test articles were formulated in PBS pH 7.4 at a concentration of Blood samples were taken 0.083, 0.167, 0.33, 0.5, 1, 2, 6, 24, 48, 72, 120, 168, 240, and 336 hours post dose. Blood samples were collected into heparinized tubes and centrifuged for 5 minutes at 2000 xg within 10 minutes of collection. 100 μL of plasma were transferred to a 1.5 ml Eppendorf tube containing 2 μL of 50 mM PMSF. After mixing, the plasma samples were frozen at −80° C. until analysis.

[4] = Projection of intravenous and subcutaneous PK parameters for humans; parameters: species or system human
Procedure: While a dose of 30 μg/kg once weekly (QW) is projected from the cynomolgus monkey PK data, the dose should be ten times higher (300 μg/kg) to adjust for the difference in in vivo potency.

T1 sequence (P55899 24-297 limits assumed): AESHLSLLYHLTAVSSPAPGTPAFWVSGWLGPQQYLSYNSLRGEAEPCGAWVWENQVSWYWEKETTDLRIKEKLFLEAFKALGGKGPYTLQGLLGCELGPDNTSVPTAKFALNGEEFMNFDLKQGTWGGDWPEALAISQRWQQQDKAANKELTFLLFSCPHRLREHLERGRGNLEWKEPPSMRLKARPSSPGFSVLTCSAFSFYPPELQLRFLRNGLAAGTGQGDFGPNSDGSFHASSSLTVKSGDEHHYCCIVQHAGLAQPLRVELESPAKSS
T1 sequence (P61769 21-119 partner): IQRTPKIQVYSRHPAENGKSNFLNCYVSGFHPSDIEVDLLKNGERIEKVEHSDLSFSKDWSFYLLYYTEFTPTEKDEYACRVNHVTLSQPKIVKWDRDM

Substance: GLP-2 peptibody K: GLP-2[A2G]-GGGGSGGGGSGGGGS linker-IgG1 Fc (LALA) with C-terminal lysine; SEQ ID NO: 10
- Kd ([1]; pH 5.5): 1.95 nM
- FcRN KD at pH 7.4 ([1]; pH 7.4): No binding in range tested.
- CL ([2]; MDPK, intravenous): 0.804 mL/h/kg
- Q ([2]; MDPK, intravenous): 1.12 mL/h/kg
- Vc ([2]; MDPK, intravenous): 0.0365 L/kg
- Vt ([2]; MDPK, intravenous): 0.0339 L/kg
- CL/F ([2]; MDPK, subcutaneous): 1.35 mL/h/kg
- Vc ([2]; MDPK, subcutaneous): 0.111 L/kg
- association constant (ka) ([2]; MDPK, subcutaneous): 1.70 day⁻¹
- CL ([2]; SDPK, intravenous): 0.717 mL/h/kg
- Q ([2]; SDPK, intravenous): 1.21 mL/h/kg
- Vc ([2]; SDPK, intravenous): 0.0323 L/kg
- Vt ([2]; SDPK, intravenous): 0.0329 L/kg
- CL/F ([2]; SDPK, subcutaneous): 1.37 mL/h/kg
- Vc ([2]; SDPK, subcutaneous): 0.107 L/kg
- association constant (ka) ([2]; SDPK, subcutaneous): 1.56 day⁻¹
- CL [3]: 2.24 mL/h/kg
- Q [3]: 2.54 mL/h/kg
- Vc [3]: 0.0422 L/kg
- Vt [3]: 0.0464 L/kg
- Vc [4]: 0.0385 L/kg
- Vt [4]: 0.0361 L/kg
- ka [4]: 1.40 day⁻¹
- CL (value in parentheses) ([4]; exponent on CL 0.85, monkey 3.5 kg, human 70 kg): 0.642 mL/h/kg
- CL ([4]; first value of cell): 1.01 mL/h/kg
- F ([4]; first value of cell): 86%
- Q ([4]; first value of cell): 2.35 mL/h/kg
- F (value in parentheses) ([4]; value in parentheses): 60%
- Q (value in parentheses) ([4]; value in parentheses): 1.5 mL/h/kg
